B3: Sly1 (full length, aa1-667) (natural protein, S. cerevisiae, UniProt P22213 1-666, looked up)
chain: MAVEEIASRKDISLRDMQISAILKMLFLNKDLNNNDNITTITDDIFNQQEIIWKVLILDIKSTATISSVLRVNDLLKAGITVHSLIKQDRSPLPDVPAIYFVSPTKENIDIIVNDLKSDKYSEFYINFTSSLPRNLLEDLAQQVSITGKSDKIKQVYDQYLDFIVTEPELFSLEISNAYLTLNDPKTTEEEITGLCANIADGLFNTVLTINSIPIIRAAKGGPAEIIAEKLGTKLRDFVINTNSSSTSTLQGNDSLERGVLIILDRNIDFASMFSHSWIYQCMVFDIFKLSRNTVTIPLESKENGTDNTTAKPLATKKYDIEPNDFFWMENSHLPFPEAAENVEAALNTYKEEAAEITRKTGVTNISDLDPNSNNDTVQIQEVVKKLPELTAKKNTIDTHMNIFAALLSQLESKSLDTFFEVEQDPGSTKTRSRFLDILKDGKTNNLEDKLRSFIVLYLTSTTGLPKDFVQNVENYFKENDYDINALKYVYKLREFMQLSNMSLQNKSLEDGSDSAFKPSNLTLSGIYGLTEGKLQGGVGSLISGIKKLLPEKKTIPITNVVDAIMDPLNSSQKNLETTDSYLYIDPKITRGSHTRKPKRQSYNKSLVFVVGGGNYLEYQNLQEWAHSQLHNPKKVMYGSTAITTPAEFLNEISRLGASNSSNNDA
notes: Sly1, Golgi SM protein, S. cerevisiae, printed as full-length aa1-667; construct His6-(tev)-Sly1; as I recall the UniProt entry has 666 residues; the printed 667 may count the stop codon; also called His6-Sly1; Golgi SM protein; source: E. coli (pRIL plasmid), purified (Ni-NTA)

Experiments:
Conditions in all cases: both partners purified
[1] = target: T1, Sec17–vacuole SNARE complex (Sec17 bound to the vacuole SNARE complex on Vam3-GST) (S. cerevisiae, UniProt Q12241 1-264; Q04338 1-194; P32912 190-316; Q12255 1-231; P32602 1-292); assay: pull-down; stoichiometry: complexes assembled on immobilised SNARE complex under saturation binding conditions; SDS-PAGE, SYPRO Ruby, band intensities against standard curves of the purified proteins; apparent
T1 construct: Vam3, Qa-SNARE, S. cerevisiae, aa1-264; Vti1, Qb-SNARE, S. cerevisiae, aa1-194; Vam7, Qc-SNARE, S. cerevisiae, SNARE domain aa190-316; Nyv1, R-SNARE, S. cerevisiae, aa1-231; Sec17, S. cerevisiae; in most experiments Sec17 and the SM were added together to the immobilised SNARE complex; also called SNARE–Sec17 complex; Sec17–SNARE complex; source: assembled …

[2] = target: T2, vacuole SNARE complex assembled on immobilized Vam3-GST (S. cerevisiae, UniProt Q12241 1-264; Q04338 1-194; P32912 190-316; Q12255 1-231); assay: pull-down; quantitative: immobilised SNARE complex, SM concentration varied, with or without Sec17, 30°C; SYPRO Ruby with standard curves; fractional saturation against free SM, one-site model; apparent (Kdobs), non-equilibrium measurements
T2 construct: Vam3, Qa-SNARE, S. cerevisiae, aa1-264; Vti1, Qb-SNARE, S. cerevisiae, aa1-194; Vam7, Qc-SNARE, S. cerevisiae, SNARE domain aa190-316; Nyv1, R-SNARE, S. cerevisiae, aa1-231; quaternary SNARE bundle, no membranes; also called vacuolar SNARE complex; SNARE bundle; source: assembled on glutathione sepharose from proteins made in E. coli; not shown: GST, C-terminal, …

[3] = target: T1, Sec17–vacuole SNARE complex (Sec17 …); assay: as above
[4] = target: T2, vacuole SNARE complex assembled on …; assay: pull-down; stoichiometry: complexes assembled on immobilised SNARE complex under saturation binding conditions; SDS-PAGE, SYPRO Ruby, band intensities against standard curves of the purified proteins; apparent
[5] = target: T3, Golgi SNARE complex assembled on immobilized GST-Sed5 SNARE domain (S. cerevisiae, UniProt Q01590 170-319; P25385 1-222; P22804 1-123; P22214 1-188); assay: as above
T3 construct: Sed5, Qa-SNARE, S. cerevisiae, aa170-319; Bos1, Qb-SNARE, S. cerevisiae, aa1-222; Bet1, Qc-SNARE, S. cerevisiae, aa1-123; Sec22, R-SNARE, S. cerevisiae, aa1-188; quaternary SNARE bundle, no membranes; also called Golgi SNARE bundle; S.C; source: assembled on glutathione sepharose from proteins made in E. coli; not shown: GST, N-terminal, kept; His6, N-terminal, …
T3 sequence (looked up) 1: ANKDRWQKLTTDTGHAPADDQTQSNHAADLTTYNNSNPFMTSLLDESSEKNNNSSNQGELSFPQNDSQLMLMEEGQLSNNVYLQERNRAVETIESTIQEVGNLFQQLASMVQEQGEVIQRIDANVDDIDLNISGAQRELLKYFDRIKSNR
T3 sequence (looked up) 2: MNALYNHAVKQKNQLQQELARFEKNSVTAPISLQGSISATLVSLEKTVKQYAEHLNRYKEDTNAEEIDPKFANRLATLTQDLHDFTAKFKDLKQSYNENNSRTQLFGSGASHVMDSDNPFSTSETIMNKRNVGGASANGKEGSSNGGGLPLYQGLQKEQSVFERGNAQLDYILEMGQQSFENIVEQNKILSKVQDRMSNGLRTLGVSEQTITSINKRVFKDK
T3 sequence (looked up) 3: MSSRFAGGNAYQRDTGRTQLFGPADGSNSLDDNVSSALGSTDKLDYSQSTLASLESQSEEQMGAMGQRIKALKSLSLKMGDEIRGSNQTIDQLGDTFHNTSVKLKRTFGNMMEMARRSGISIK
T3 sequence (looked up) 4: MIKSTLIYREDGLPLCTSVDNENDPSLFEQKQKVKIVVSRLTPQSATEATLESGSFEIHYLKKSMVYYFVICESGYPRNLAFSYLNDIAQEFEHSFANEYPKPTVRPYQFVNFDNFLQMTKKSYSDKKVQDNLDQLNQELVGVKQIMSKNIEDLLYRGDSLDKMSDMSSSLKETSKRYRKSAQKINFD

[6] = target: T4, Sec17–Golgi SNARE complex (Sec17 bound to the Golgi SNARE complex on GST-Sed5 SNARE domain) (S. cerevisiae, UniProt Q01590 170-319; P25385 1-222; P22804 1-123; P22214 1-188; P32602 1-292); assay: as above
T4 construct: Sed5, Qa-SNARE, S. cerevisiae, aa170-319; Bos1, Qb-SNARE, S. cerevisiae, aa1-222; Bet1, Qc-SNARE, S. cerevisiae, aa1-123; Sec22, R-SNARE, S. cerevisiae, aa1-188; Sec17, S. cerevisiae; in most experiments Sec17 and Sly1 were added together to the immobilised SNARE complex; also called SNARE-Sec17 complex; Sec17–SNARE complex; source: assembled on …
T4 sequence (looked up) 1: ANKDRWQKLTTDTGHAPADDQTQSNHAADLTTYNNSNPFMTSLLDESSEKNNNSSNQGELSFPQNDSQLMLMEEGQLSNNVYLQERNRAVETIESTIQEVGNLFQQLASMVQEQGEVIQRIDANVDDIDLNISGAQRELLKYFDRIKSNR
T4 sequence (looked up) 2: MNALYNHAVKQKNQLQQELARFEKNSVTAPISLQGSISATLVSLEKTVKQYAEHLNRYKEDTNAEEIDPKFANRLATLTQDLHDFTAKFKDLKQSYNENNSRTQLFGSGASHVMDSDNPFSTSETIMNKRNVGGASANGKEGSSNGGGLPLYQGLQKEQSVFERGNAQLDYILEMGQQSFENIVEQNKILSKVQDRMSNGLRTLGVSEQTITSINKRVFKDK
T4 sequence (looked up) 3: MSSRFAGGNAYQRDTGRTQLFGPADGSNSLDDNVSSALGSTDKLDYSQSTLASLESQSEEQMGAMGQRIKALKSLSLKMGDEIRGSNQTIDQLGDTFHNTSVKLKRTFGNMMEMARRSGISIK
T4 sequence (looked up) 4: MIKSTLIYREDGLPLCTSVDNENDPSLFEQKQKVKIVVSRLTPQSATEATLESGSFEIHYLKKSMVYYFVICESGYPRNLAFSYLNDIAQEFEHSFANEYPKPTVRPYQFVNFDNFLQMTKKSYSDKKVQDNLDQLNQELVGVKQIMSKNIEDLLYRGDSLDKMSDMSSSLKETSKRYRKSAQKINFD
T4 sequence (looked up) 5: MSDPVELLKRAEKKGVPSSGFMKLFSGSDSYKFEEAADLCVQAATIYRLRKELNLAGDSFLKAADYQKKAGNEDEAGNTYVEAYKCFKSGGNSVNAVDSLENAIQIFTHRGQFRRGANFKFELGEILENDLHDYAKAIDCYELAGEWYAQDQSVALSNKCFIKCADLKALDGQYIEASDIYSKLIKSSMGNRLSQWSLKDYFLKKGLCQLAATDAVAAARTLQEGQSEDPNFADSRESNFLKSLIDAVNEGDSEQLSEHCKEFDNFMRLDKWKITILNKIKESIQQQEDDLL

[7] = target: T4, Sec17–Golgi SNARE complex (Sec17 bound …); assay: pull-down; quantitative: immobilised SNARE complex, SM concentration varied, with or without Sec17, 30°C; SYPRO Ruby with standard curves; fractional saturation against free SM, one-site model; apparent (Kdobs), non-equilibrium measurements
[8] = target: B3; assay: pull-down; full cytoplasmic domain of Sed5 (GST-Sed5FL, 500 nM) immobilised without assembled SNARE complex; Sly1 (10 µM) and Sec17; 30°C; Coomassie

T2 sequence (Q12241 1-264, chain 1 of 4): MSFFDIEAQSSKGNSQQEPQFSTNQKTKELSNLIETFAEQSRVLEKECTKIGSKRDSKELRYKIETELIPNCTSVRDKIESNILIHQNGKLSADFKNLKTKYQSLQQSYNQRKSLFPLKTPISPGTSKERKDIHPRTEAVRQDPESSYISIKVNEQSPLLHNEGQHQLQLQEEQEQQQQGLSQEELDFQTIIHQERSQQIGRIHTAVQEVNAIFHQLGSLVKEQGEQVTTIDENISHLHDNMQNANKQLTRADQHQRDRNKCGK
T2 sequence (Q04338 1-194, chain 2 of 4): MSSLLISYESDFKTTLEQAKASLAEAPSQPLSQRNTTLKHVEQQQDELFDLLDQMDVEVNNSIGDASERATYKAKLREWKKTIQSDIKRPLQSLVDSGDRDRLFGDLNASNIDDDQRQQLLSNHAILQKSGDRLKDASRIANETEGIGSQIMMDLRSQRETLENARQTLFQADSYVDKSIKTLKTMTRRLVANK
T2 sequence (P32912 190-316, chain 3 of 4): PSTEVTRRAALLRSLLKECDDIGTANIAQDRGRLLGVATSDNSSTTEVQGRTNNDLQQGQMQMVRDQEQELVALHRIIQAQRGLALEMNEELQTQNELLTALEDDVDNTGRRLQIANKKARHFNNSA
T2 sequence (Q12255 1-231, chain 4 of 4): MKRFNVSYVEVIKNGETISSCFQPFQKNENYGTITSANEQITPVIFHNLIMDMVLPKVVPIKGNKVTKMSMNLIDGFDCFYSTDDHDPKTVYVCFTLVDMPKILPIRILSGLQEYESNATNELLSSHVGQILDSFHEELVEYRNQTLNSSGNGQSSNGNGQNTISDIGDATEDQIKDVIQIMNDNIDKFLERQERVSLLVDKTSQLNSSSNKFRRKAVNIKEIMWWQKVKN
T1 sequence (Q12241 1-264, chain 1 of 4): as the sequence (Q12241 1-264, chain 1 of 4) above
T1 sequence (Q04338 1-194, chain 2 of 4): as the sequence (Q04338 1-194, chain 2 of 4) above
T1 sequence (P32912 190-316, chain 3 of 4): as the sequence (P32912 190-316, chain 3 of 4) above
T1 sequence (Q12255 1-231, chain 4 of 4): as the sequence (Q12255 1-231, chain 4 of 4) above

B1: Vps33 (natural protein, S. cerevisiae, UniProt P20795 1-691, looked up)
chain: MNRFWNTKKFSLTNADGLCATLNEISQNDEVLVVQPSVLPVLNSLLTFQDLTQSTPVRKITLLDDQLSDDLPSALGSVPQMDLIFLIDVRTSLRLPPQLLDAAQKHNLSSLHIIYCRWKPSFQNTLEDTEQWQKDGFDLNSKKTHFPNVIESQLKELSNEYTLYPWDLLPFPQIDENVLLTHSLYNMENVNMYYPNLRSLQSATESILVDDMVNSLQSLIFETNSIITNVVSIGNLSKRCSHLLKKRIDEHQTENDLFIKGTLYGERTNCGLEMDLIILERNTDPITPLLTQLTYAGILDDLYEFNSGIKIKEKDMNFNYKEDKIWNDLKFLNFGSIGPQLNKLAKELQTQYDTRHKAESVHEIKEFVDSLGSLQQRQAFLKNHTTLSSDVLKVVETEEYGSFNKILELELEILMGNTLNNDIEDIILELQYQYEVDQKKILRLICLLSLCKNSLREKDYEYLRTFMIDSWGIEKCFQLESLAELGFFTSKTGKTDLHITTSKSTRLQKEYRYISQWFNTVPIEDEHAADKITNENDDFSEATFAYSGVVPLTMRLVQMLYDRSILFHNYSSQQPFILSREPRVSQTEDLIEQLYGDSHAIEESIWVPGTITKKINASIKSNNRRSIDGSNGTFHAAEDIALVVFLGGVTMGEIAIMKHLQKILGKKGINKRFIIIADGLINGTRIMNSIS
notes: Vps33, SM protein of the vacuole, S. cerevisiae; also called vacuole SM protein; late endolysosomal SM; source: insect cells, Baculovirus system, purified
stoichiometry N [1]: 1 Vps33 per SNARE complex
Kd [2]: 1.6 ± 0.1 µM
Kd [3]: 0.3 ± 0.01 µM

B2: Sec17 (natural protein, S. cerevisiae, UniProt P32602 1-292, looked up)
chain: MSDPVELLKRAEKKGVPSSGFMKLFSGSDSYKFEEAADLCVQAATIYRLRKELNLAGDSFLKAADYQKKAGNEDEAGNTYVEAYKCFKSGGNSVNAVDSLENAIQIFTHRGQFRRGANFKFELGEILENDLHDYAKAIDCYELAGEWYAQDQSVALSNKCFIKCADLKALDGQYIEASDIYSKLIKSSMGNRLSQWSLKDYFLKKGLCQLAATDAVAAARTLQEGQSEDPNFADSRESNFLKSLIDAVNEGDSEQLSEHCKEFDNFMRLDKWKITILNKIKESIQQQEDDLL
notes: Sec17, S. cerevisiae; construct CBD-(intein)-Sec17 in pTYB12; an intein tag is as a rule cut off during purification; also called α-SNAP homolog; Sec18 adapter; source: E. coli (pRIL plasmid), purified
stoichiometry N [4]: 3 Sec17 per SNARE complex
stoichiometry N [5]: 3 Sec17 per SNARE complex

B3
stoichiometry N [6]: 1 Sly1 per SNARE complex
Kd [7]: 1 ± 0.1 µM

B4: GST-Sed5 full cytoplasmic domain (aa1-319) (domain or fragment, S. cerevisiae, UniProt Q01590 1-319, looked up)
chain: MNIKDRTSEFQQSVLSYKKRNKNFREQQRERLQEKESENFANNTTGNGKSVSEFQKKASGIAHEISSTAQLLSKLAVLAKRKPMFNDNPVEIAELSFLIKRKIYAIEQSLVQLSQLKKTDVNGNTSNQSSKQPSAVQHSKNVVNLLNTQMKNISGSFKDVLEERQRLEMANKDRWQKLTTDTGHAPADDQTQSNHAADLTTYNNSNPFMTSLLDESSEKNNNSSNQGELSFPQNDSQLMLMEEGQLSNNVYLQERNRAVETIESTIQEVGNLFQQLASMVQEQGEVIQRIDANVDDIDLNISGAQRELLKYFDRIKSNR
notes: Sed5, Golgi Qa-SNARE, S. cerevisiae, full cytoplasmic domain aa1-319 with N-peptide and Habc segments, no transmembrane domain; also called GST-Sed5FL; Sed5FL; not shown: GST, N-terminal, kept
binding result [8]: binds

— article PMC4060006, “SM proteins Sly1 and Vps33 co-assemble with Sec17 and SNARE complexes to oppose SNARE disassembly by Sec18” (eLife, 2014)
